To fix the notation:
B1: Hu147-11wk (antibody, human IgG1, kappa, V domains shown)
VH: EVQLVESGGGLVQPGGSLRLSCAASGFTFSTYAMNWVRQAPGKGLEWVGRIRTKSNNYATYYADSVKDRFTISRDDSKNSLYLQMNSLKTEDTAVYYCVETGFAYWDQGTLVTVSS
VL: EIVLTQSPATLSLSPGERATLSCSASSSVSYMHWFQQKPGQSPRLLIYSTSNLASGIPARFSGSGSGTDYTLTISSLEPEDFAVYYCQQRSSYPLTFGQGTKLEIKR
B2: Hu147-15wk (antibody, human IgG1, kappa, V domains shown)
VH: EVQLVESGGGLVQPGGSLRLSCAASGFTFSTYAMNWVRQAPGKGLEWVGRIRTKSNNYATYYADSVKDRFTISRDDSKNSLYLQMNSLKTEDTAVYYCVETGFAYWDQGTLVTVSS
VL: DIQLTQSPSSLSASVGDRVTITCSASSSVSYMHWFQQKPGKSPKLWIYSTSNLASGVPSRFSGSGSGTDYTLTISSLQPEDFATYYCQQRSSYPLTFGQGTKLEIKR
B3: Hu147-32wk (antibody, human IgG1, kappa, V domains shown)
VH: EVQLVESGGGLVQPGGSLRLSCAASGFSFNTYAMNWVRQAPGKGLEWVARIRTKSNNYATYYADSVKDRFTISRDDSESSLYLQMNSLKTEDTAVYYCVETGFAYWDQGTLVTVSS
VL: EIVLTQSPATLSLSPGERATLSCSASSSVSYMHWFQQKPGQSPKLLIYSTSNLASGIPARFSGSGSGTDYTLTISSLEPEDFAVYYCQQRSSYPLTFGQGTKLEIKR
B4: Hu147-31wk (antibody, human IgG1, kappa, V domains shown)
VH: EVQLVESGGGLVQPGGSLRLSCAASGFSFNTYAMNWVRQAPGKGLEWVARIRTKSNNYATYYADSVKDRFTISRDDSESSLYLQMNSLKTEDTAVYYCVETGFAYWDQGTLVTVSS
VL: EIVLTQSPATLSLSPGERATLSCSASSSVSYMHWFQQKPGQSPRLLIYSTSNLASGIPARFSGSGSGTDYTLTISSLEPEDFAVYYCQQRSSYPLTFGQGTKLEIKR
B5: Hu147-23wk (antibody, human IgG1, kappa, V domains shown)
VH: EVQLVESGGGLVQPGGSLRLSCAASGFTFNTYAMNWVRQAPGKGLEWVARIRTKSNNYATYYADSVKDRFTISRDDSKNSLYLQMNSLKTEDTAVYYCVETGFAYWDQGTLVTVSS
VL: EIVLTQSPATLSLSPGERATLSCSASSSVSYMHWFQQKPGQSPKLWIYSTSNLASGVPARFSGSGSGTDYTLTISSLEPEDFAVYYCQQRSSYPLTFGQGTKLEIKR
B6: Hu147-13wk (antibody, human IgG1, kappa, V domains shown)
VH: EVQLVESGGGLVQPGGSLRLSCAASGFTFSTYAMNWVRQAPGKGLEWVGRIRTKSNNYATYYADSVKDRFTISRDDSKNSLYLQMNSLKTEDTAVYYCVETGFAYWDQGTLVTVSS
VL: EIVLTQSPATLSLSPGERATLSCSASSSVSYMHWFQQKPGQSPKLWIYSTSNLASGVPARFSGSGSGTDYTLTISSLEPEDFAVYYCQQRSSYPLTFGQGTKLEIKR
B7: Hu147-22wk (antibody, human IgG1, kappa, V domains shown)
VH: EVQLVESGGGLVQPGGSLRLSCAASGFTFNTYAMNWVRQAPGKGLEWVARIRTKSNNYATYYADSVKDRFTISRDDSKNSLYLQMNSLKTEDTAVYYCVETGFAYWDQGTLVTVSS
VL: EIVLTQSPATLSLSPGERATLSCSASSSVSYMHWFQQKPGQSPKLLIYSTSNLASGIPARFSGSGSGTDYTLTISSLEPEDFAVYYCQQRSSYPLTFGQGTKLEIKR
B8: Hu147-21wk (antibody, human IgG1, kappa, V domains shown)
VH: EVQLVESGGGLVQPGGSLRLSCAASGFTFNTYAMNWVRQAPGKGLEWVARIRTKSNNYATYYADSVKDRFTISRDDSKNSLYLQMNSLKTEDTAVYYCVETGFAYWDQGTLVTVSS
VL: EIVLTQSPATLSLSPGERATLSCSASSSVSYMHWFQQKPGQSPRLLIYSTSNLASGIPARFSGSGSGTDYTLTISSLEPEDFAVYYCQQRSSYPLTFGQGTKLEIKR
B9: Hu147-34wk (antibody, human IgG1, kappa, V domains shown)
VH: EVQLVESGGGLVQPGGSLRLSCAASGFSFNTYAMNWVRQAPGKGLEWVARIRTKSNNYATYYADSVKDRFTISRDDSESSLYLQMNSLKTEDTAVYYCVETGFAYWDQGTLVTVSS
VL: DIQMTQSPSSLSASVGDRVTITCSASSSVSYMHWFQQKPGKSPKLLIYSTSNLASGVPSRFSGSGSGTDYTLTISSLQPEDFATYYCQQRSSYPLTFGQGTKLEIKR
B10: Hu147-14wk (antibody, human IgG1, kappa, V domains shown)
VH: EVQLVESGGGLVQPGGSLRLSCAASGFTFSTYAMNWVRQAPGKGLEWVGRIRTKSNNYATYYADSVKDRFTISRDDSKNSLYLQMNSLKTEDTAVYYCVETGFAYWDQGTLVTVSS
VL: DIQMTQSPSSLSASVGDRVTITCSASSSVSYMHWFQQKPGKSPKLLIYSTSNLASGVPSRFSGSGSGTDYTLTISSLQPEDFATYYCQQRSSYPLTFGQGTKLEIKR
B11: Hu147-33wk (antibody, human IgG1, kappa, V domains shown)
VH: EVQLVESGGGLVQPGGSLRLSCAASGFSFNTYAMNWVRQAPGKGLEWVARIRTKSNNYATYYADSVKDRFTISRDDSESSLYLQMNSLKTEDTAVYYCVETGFAYWDQGTLVTVSS
VL: EIVLTQSPATLSLSPGERATLSCSASSSVSYMHWFQQKPGQSPKLWIYSTSNLASGVPARFSGSGSGTDYTLTISSLEPEDFAVYYCQQRSSYPLTFGQGTKLEIKR
B12: Hu147-12wk (antibody, human IgG1, kappa, V domains shown)
VH: EVQLVESGGGLVQPGGSLRLSCAASGFTFSTYAMNWVRQAPGKGLEWVGRIRTKSNNYATYYADSVKDRFTISRDDSKNSLYLQMNSLKTEDTAVYYCVETGFAYWDQGTLVTVSS
VL: EIVLTQSPATLSLSPGERATLSCSASSSVSYMHWFQQKPGQSPKLLIYSTSNLASGIPARFSGSGSGTDYTLTISSLEPEDFAVYYCQQRSSYPLTFGQGTKLEIKR
B13: Hu147-24wk (antibody, human IgG1, kappa, V domains shown)
VH: EVQLVESGGGLVQPGGSLRLSCAASGFTFNTYAMNWVRQAPGKGLEWVARIRTKSNNYATYYADSVKDRFTISRDDSKNSLYLQMNSLKTEDTAVYYCVETGFAYWDQGTLVTVSS
VL: DIQMTQSPSSLSASVGDRVTITCSASSSVSYMHWFQQKPGKSPKLLIYSTSNLASGVPSRFSGSGSGTDYTLTISSLQPEDFATYYCQQRSSYPLTFGQGTKLEIKR
B14: Hu164-57wl (antibody, human IgG1, lambda, V domains shown)
VH: EVTLKESGPVLVKPTETLTLTCTVSGFSLSTFGVHWIRQPPGKALEWLAVIWRRGGTDYNAAFMSRLTISKDTSKSQVVLTMTNMDPVDTATYYCARDGGFDYWGQGTTVTVSS
VL: ETVVTQEPSLTVSPGGTVTLTCRSSIGAVTTSNYANWVQQKPGQAFRGLIGGTSNRAPWTPARFSGSLLGGKAALTLSGVQPEDEAEYYCALWYSTHYVFGGGTKLTVLG
B15: Hu164-87wl (antibody, human IgG1, lambda, V domains shown)
VH: EVQLQESGPGLVKPSQTLSLTCTVSGFSISTFGVHWIRQHPGKGLEWLGVIWRRGGTDYNAAFMSRLTISKDTSKNQVSFKLSSVTAADTAVYYCARDGGFDYWGQGTTVTVSS
VL: ETVVTQEPSLTVSPGGTVTLTCRSSIGAVTTSNYANWVQQKPGQAFRGLIGGTSNRAPWTPARFSGSLLGGKAALTLSGVQPEDEAEYYCALWYSTHYVFGGGTKLTVLG
B16: Hu164-68wl (antibody, human IgG1, lambda, V domains shown)
VH: EVTLKESGPVLVKPTETLTLTCTVSGFSLSTFGVHWIRQPPGKGLEWLGVIWRRGGTDYNAAFMSRLTISKDTSKSQVVFTMTNMDPVDTATYYCARDGGFDYWGQGTTVTVSS
VL: ETVVTQEPSFSVSPGGTVTLTCRSSIGAVTTSNYANWVQQTPGQAFRGLIGGTSNRAPGVPDRFSGSILGNKAALTITGAQADDESDYYCALWYSTHYVFGGGTKLTVLG
B17: Hu164-77wl (antibody, human IgG1, lambda, V domains shown)
VH: EVQLQESGPGLVKPSQTLSLTCTVSGFSISTFGVHWIRQHPGKGLEWIGVIWRRGGTDYNAAFMSRVTISKDTSKNQVSLKLSSVTAADTAVYYCARDGGFDYWGQGTTVTVSS
VL: ETVVTQEPSLTVSPGGTVTLTCRSSIGAVTTSNYANWVQQKPGQAFRGLIGGTSNRAPWTPARFSGSLLGGKAALTLSGVQPEDEAEYYCALWYSTHYVFGGGTKLTVLG
B18: Hu164-69wl (antibody, human IgG1, lambda, V domains shown)
VH: EVTLKESGPVLVKPTETLTLTCTVSGFSLSTFGVHWIRQPPGKGLEWLGVIWRRGGTDYNAAFMSRLTISKDTSKSQVVFTMTNMDPVDTATYYCARDGGFDYWGQGTTVTVSS
VL: ESVVTQPPSVSGAPGQRVTISCRSSIGAVTTSNYANWVQQLPGTAFKGLIGGTSNRAPGVPDRFSGSKSGTSASLAITGLQAEDEADYYCALWYSTHYVFGGGTKLTVLG
B19: Hu95-51yk (antibody, human IgG1, kappa, V domains shown)
VH: EVQLVQSGAEVKKPGASVKVSCRASGFTFTNYAIHWVKQAPGQRLEWMGLVYPYTGGTAYNQKFKDKVTLTFDTSASTAYMELSSLRSEDTAVYYCARWGMIPGTNSYFDVWGQGTTVTVSS
VL: EIVLTQSPATLSLSPGERATLSCRASSSVSYIHWYQQKPGQAPRPWIYATSNLASGIPARFSGSGSGTDYTLTISRLEPEDFAVYYCQQWNSNPWTFGGGTKVEIKR

19 molecules from US20230416352A1 can be followed below.

By EC50 is commonly meant the concentration needed to bring the measured effect to its halfway point.

Chain of Cynomolgus monkey CTGF-Fc (cynomolgus monkey) (P29279 other isoform, or with tags, fused parts or gaps limits assumed): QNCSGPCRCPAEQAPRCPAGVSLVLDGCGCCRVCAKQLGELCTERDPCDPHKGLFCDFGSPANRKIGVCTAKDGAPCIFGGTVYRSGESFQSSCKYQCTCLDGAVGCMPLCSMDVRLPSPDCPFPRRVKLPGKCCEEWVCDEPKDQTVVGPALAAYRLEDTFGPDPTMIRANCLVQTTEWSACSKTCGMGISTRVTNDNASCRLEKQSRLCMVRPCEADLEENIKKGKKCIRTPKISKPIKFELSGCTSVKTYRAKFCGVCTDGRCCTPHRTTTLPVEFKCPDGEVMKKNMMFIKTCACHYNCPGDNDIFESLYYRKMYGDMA

This test has as its target Cynomolgus monkey CTGF-Fc (cynomolgus monkey). Kind of test: ELISA, cyno-CTGF-mFc captured by anti-mFc.
In the case of B1, the 50% effective concentration (EC50) amounted to 0.052 nM. Molecule B2 displayed an EC50 of 0.053 nM. Turning to B3, the 50% effective concentration (EC50) is 0.079 nM. As to B4, the EC50 came to 0.07 nM. The molecule B5 had an EC50 of 0.063 nM. B6 showed an EC50 of 0.043 nM. For B7, the EC50 was determined as 0.073 nM. B8: the EC50 stood at 0.053 nM.

Molecule B9 came in with a concentration giving a half-maximal response (EC50) of 0.144 nM. B10 had an EC50 of 0.077 nM. For B11, the half-maximal effective concentration (EC50) was found to be 0.044 nM. B12 yielded an EC50 of 0.062 nM. For B13 the value was 0.08 nM; for B14, 0.029 nM; for B15, 0.034 nM.

For the molecule B16, the EC50 came to 0.036 nM.

B17 registered a concentration giving a half-maximal response (EC50) of 0.038 nM. In the case of B18, the EC50 came out at 0.032 nM.

In the case of B19, the half-maximal effective concentration (EC50) amounted to 0.059 nM.
